Tests used:
CD38 (human) [1] = biological target: CD38 (human) (UniProt P28907); assay: flow cytometry on KMS-12 cells
CD38 (human) [2] = biological target: CD38 (human) (UniProt P28907); assay: flow cytometry on KMS-18 cells

MFI (CD38 (human) [1]): 62.4 MFI
MFI (CD38 (human) [2]): 44.5 MFI
Substance: Anti-CD38 HIT2 mAb (antibody)

From patent US20250163144A1
